Reference: patent US20240336672A1

How the values were obtained:
Details in all cases: remark: other sources report otherwise
[1] = molecular target: SARS-CoV-2 RBD (B.1.351) domain (SARS-CoV-2); test: ELISA; design: unit not given beside the values
[2] = molecular target: T1, SARS-CoV-2 Spike ectodomain (tri-S), Wuhan (SARS-CoV-2), P0DTC2; test: tri-S/ACE2 blocking ELISA
[3] = molecular target: SARS-CoV-2 RBD (B.1.1.7) domain (SARS-CoV-2); test: RBD-ACE2 competition ELISA; design: unit not given beside the values
[4] = molecular target: SARS-CoV-2 RBD (B.1.351) domain (SARS-CoV-2); test: RBD-ACE2 competition ELISA; design: unit not given beside the values
[5] = molecular target: SARS-CoV-2 RBD (P.1) domain (SARS-CoV-2); test: RBD-ACE2 competition ELISA; design: unit not given beside the values
[6] = molecular target: T1, SARS-CoV-2 Spike ectodomain (tri-S), …; test: competition ELISA vs bio-Cv2.5213
[7] = molecular target: T1, SARS-CoV-2 Spike ectodomain (tri-S), …; test: competition ELISA, spike protein binding to ACE2 ectodomain
[8] = molecular target: T1, SARS-CoV-2 Spike ectodomain (tri-S), …; test: SPR (Biacore), antibody coupled to CM5 chip, viral protein as analyte

B1: Cv2.3194 (recombinant human IgG1) (antibody)
heavy: EVQLVESGGGLIQPGGSLRLSCAASGITVTSNYMSWVRQAPGKGLEWVSVIYPGGSTFYADSVKGRFTISRDNSKNTLYLQMNSLRAEDTAVYYCARDLVVYGMDVWGQGTTVTVSSASTKGPSVFPLAPSSKSTSGGTAALGCLVKDYFPEPVTVSWNSGALTSGVHTFPAVLQSSGLYSLSSVVTVPSSSLGTQTYICNVNHKPSNTKVDKKVEPKSCDKTHTCPPCPAPELLGGPSVFLFPPKPKDTLMISRTPEVTCVVVDVSHEDPEVKFNWYVDGVEVHNAKTKPREEQYNSTYRVVSVLTVLHQDWLNGKEYKCKVSNKALPAPIEKTISKAKQPREPQVYTLPPSRDELTKNQVSLTCLVKGFYPSDIAVEWESNGQPENNYKTTPPVLDSDGSFFLYSKLTVDKSRWQQGNVFSCSVMHEALHNHYTQKSLSLSPGK
light: EIVLTQSPGTLSLSPGERATLSCRASQSVSSSYLAWYQQKPGQAPRLLIYGASSRATGIPGRFSGSGSGTDFTLTISRLEPEDFAIYYCQQGVTFGGGTKVEIKRTVAAPSVFIFPPSDEQLKSGTASVVCLLNNFYPREAKVQWKVDNALQSGNSQESVTEQDSKDSTYSLSSTLTLSKADYEKHKVYACEVTHQGLSSPVTKSFNRGEC
AUC [1]: 12 | AUC (RBD bind.) [1]: 12 | % binding inhibition [2]: 97% | AUC (RBD block.) [3]: 147 | AUC (RBD block.) [4]: 168 | AUC (RBD block.) [5]: 139 | % inhibition (competition) [6]: 84 | ACE2 Block (%) [7]: 91% | Kd [8]: < 1 pM
